Five molecules from patent US20240150462A1 (UNIVERSITY HEALTH NETWORK, published 2024) can be followed below.

B1: 6B3 (antibody, V domains shown)
VH: EVQLQESGPELLKPGASMKISCKASGYTFTDDYMNWVKQSHGKSLEWIGDINPNNGGTSYNQKFKGKATLTVDKSSSTAYMELRSLTSEDSAVYYCARGSPWFAYWGQGTLVTVSA
VL: DIQMTQTTSSLSASLGDRVTINCRASQDIRNYLSWYQQKPDGTVKLLIYYTSRLHSGVPSRFSGSGSGRDYSLTISNLEQEDIATYFCQQSNTLPWTFGGGTKLEITR
notes: Entries are printed with leader peptide and part of the mouse constant region (heavy entry ends within CH1); also called LILRB2 antibody 6B3
B2: 8D2 (antibody, V domains shown)
VH: QIQLVQSGPELKKPGETVKISCKASGYTFTTYGMSWVKQAPGKGLKWMGWINTYSGAPAYVDDFKGRFAFSLETSASTAYLQINNLKNEDTATYFCARHFYSGSSYWYFDVWGTGTTVTVSS
VL: DIQMTQSPASLSVSVGETVTITCRASENIYSNLAWYQQKQGKSPQLLVYAATNLADGVPSRFSGSGSGTQYSLKINSLQSEDFGSYYCQHFWGTPRTFGGGTKLEIKR
notes: Entries are printed with leader peptide and part of the mouse constant region; also called LILRB2 antibody 8D2
B3: 3B3 (antibody, V domains shown)
VH: QVQLQQPGAELVKPGASVKMSCKASDYTFTSYWITWVKKRPGQGLEWIGDIYPGSDTTNYNEKFKNKATLTVDTSSSTAHMQLSSLTSEDSAVYYCTRPLYQGISPWFAYWGQGTLVTVSA
VL: NIVMTQSPKSMSMSVGERVTLSCKASENVGTYVSWYQQKPEQSPKLLIYGASNRYTGVPDRFTGSGSATDFTLTISSVQAEDLADYHCGQSYSYPFTFGSGTKLEIKR
notes: Entries are printed with leader peptide and part of the mouse constant region; also called LILRB2 antibody 3B3
B4: 10D4 (antibody, V domains shown)
VH: QVQLQQSDAELVKPGASVKISCKVSGYTFSDHTFHWMKQRPEQGLEWIGYFYPRDGRSKYNEKFRDKATLTADKSSSTAYMQLNSLTSEDSAVYFCTCDGFDYWGQGTTLTVSS
VL: DIKMTQSPSSMHASLGERVTITCKASQDINSYLSWFQQKPGKSPKTLIYHADRLVDGVPSRFSGSGSGQDYSLTISSLEYEDMGIYYCLQYDEFPYTFGGGTKLEIKR
notes: Entries are printed with leader peptide and part of the mouse constant region; also called LILRB2 antibody 10D4
B5: 10A8 (antibody, V domains shown)
VH: EVQLVESGGDFVKPGGSLKLSCAASGFTFSSYDMSWVRQTPDKRLEWVATIIRGDSYTYYLDSVKGRFTISRDNAKNTLYLQMSSLKSEDTAMYYCARPSYGNSFDYWGQGTTLTVSS
VL: DIVMTQSHKFMSTSIGDRVSITCKASQDVNNAVAWYQQKPGQSPKLLIYAASYRYTGVPDRFTGSGSGTDFTFTISSVQAEDLAVYHCQQHYGIPWTFGGGTKLEIKR
notes: Entries are printed with leader peptide and part of the mouse constant region; also called LILRB2 antibody 10A8

T1 sequence (Q8N423 22-460): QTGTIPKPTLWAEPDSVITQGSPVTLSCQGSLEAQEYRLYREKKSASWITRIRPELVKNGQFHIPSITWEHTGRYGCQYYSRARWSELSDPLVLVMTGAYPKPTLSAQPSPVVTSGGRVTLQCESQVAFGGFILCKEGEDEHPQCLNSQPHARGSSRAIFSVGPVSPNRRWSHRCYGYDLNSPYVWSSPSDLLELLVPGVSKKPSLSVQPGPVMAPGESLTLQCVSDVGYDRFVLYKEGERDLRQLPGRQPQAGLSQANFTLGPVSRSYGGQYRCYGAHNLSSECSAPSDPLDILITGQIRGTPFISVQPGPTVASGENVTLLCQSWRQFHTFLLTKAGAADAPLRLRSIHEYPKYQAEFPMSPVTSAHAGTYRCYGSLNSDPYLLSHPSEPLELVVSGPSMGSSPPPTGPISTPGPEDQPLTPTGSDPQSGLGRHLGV

The test addresses T1, Recombinant human Fc-tagged extracellular domain of LILRB2 (human, UniProt Q8N423 22-460).
T1 construct: extracellular domain; Bought from R&D Systems; also called LILRB2-Fc; not shown: Fc tag
Kind of test: SPR, Biacore X100; LILRB2-Fc amine-coupled to CM5 chip, antibody injected at 3.7-300 nM. The method, then: Dissociation constants (Kd) for mouse anti-human LILRB1 and LIRB2 antibodies were determined using a Biacore X100 surface plasmon resonance instrument (Cytivia). Recombinant human Fc-tagged extracellular domains of LILRB1 or LILRB2 (LILRB1-Fc or LILRB2-Fc; R&D Systems) were immobilized on a Biacore CM5 biosensor chip by amine coupling at a density of 40-50 relative units (RU). Purified mouse monoclonal antibodies were injected over the biosensor in a concentration series of 3.7, 11, 33, 100, and 300 nM in HBS-EP buffer (10 mM HEPS pH 7.4, […], 3 mM EDTA, 0.005% v/v Surfactant P20) at a flow rate of 50 μL/min. Regeneration of the chip was achieved by a 30 s injection of 10 mM glycine-HCl, pH 1.7. Affinity parameters were determined by fitting response data using the accompanying Biacore X100 analysis software.
For orientation: SPR reads the build-up and loss of mass on a sensor chip optically.
Take B1: the “-log(Kd)” value was determined as 9.02.
In the case of B2, the “-log(Kd)” value worked out at 8.43.
Take B3: the “-log(Kd)” value was 8.01.
Consider B4, for which the “-log(Kd)” value turned out to be 7.82.
For B5, the “-log(Kd)” value was found to be 8.77.
